Test results taken from the supplement of paper PMC7877785.
± gives the uncertainty stated by the source.

Assay: self-splicing fitness, log relative to wild type (ln ratio); higher = more splicing; Tetrahymena group I intron in knt gene, E. coli kanamycin selection, DiMSum; sequences stand for … in CUCUCU…GGAGGGAAAAGUUAUCAGGCAUGCACCUGGUAGCUAGUCUUUAAACCAAUAGAUUGCAUCGGUUUAAAAGGCAAGACCGUCAAAUUGCGGGAAAGGGGUCAACAGCCGUUCAGUACCAAGUCUCAGGGGAAACUUUGAGAUGGCCUUGCAAAGGGUAUGGUAAUAAGCUGACGGACAUGGUCCUAACCACGCAGCCAAGUCCUAAGUCAACAGAUCUUCUGUUGAUAUGGAUGCAGUUCACAGACUAAAUGUCGGUCGGGGAAGAUGUAUUCUUCUCAUAAGAUAUAGUCGGACCUCUCCUUAAUGGGAGCUAGCGGAUGAAGUGAUGCAACACUGGAGCCGCUGGGAACUAAUUUGUAUGCGAAAGUAUAUUGAUUAGUUUUGGAGUACUCGUGGUCG
Method in brief: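 Colonies from six replicate transformations of E. coli BL21(DE3) were pooled and amplicon-sequenced on an Illumina HiSeq 2500. The library placed an intron with all eight P1ex-region nucleotides randomised inside the knt kanamycin-resistance gene on pET-22b(+), and cells grew overnight at 37°C or 30°C on LB agar with or without 25 μg/mL kanamycin (plus 100 μg/mL carbenicillin, 50 μM IPTG, 0.2% rhamnose). Fitness is the DiMSum error-weighted combination of wild-type-normalised replicate fold changes, kanamycin versus none.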

| Sequence | self-splicing fitness (ln) (30 °C) | self-splicing fitness (ln) (37 °C) |
| --- | --- | --- |
| GUGGAGCAAUAUUACGUCGG | -3.08 ± 0.22 | -2.35 ± 0.2 |
| GUGGAGCAAUAUUACGUGAC |  | 1.74 ± 0.35 |
| GUGGAGCAAUAUUACGUGGU | -2.9 ± 0.27 | -2.51 ± 0.28 |
| GUGGAGCAAUAUUACGUUCA | -1.02 ± 0.11 | -0.668 ± 0.11 |
| GUGUAGCAAUAUUACGAAGA |  | -1.38 ± 0.39 |
| GUGUAGCAAUAUUACGAAGU | -2.86 ± 0.34 | -1.67 ± 0.25 |
| GUGUAGCAAUAUUACGACUA | -0.34 ± 0.11 | 0.0605 ± 0.12 |
| GUGUAGCAAUAUUACGAGAC | -3.58 ± 0.42 | -2.4 ± 0.16 |
| GUGUAGCAAUAUUACGAGGU | -2.33 ± 0.44 | -1.61 ± 0.49 |
| GUGUAGCAAUAUUACGAUCG | -1.94 ± 0.22 | 0.634 ± 0.17 |
| GUGUAGCAAUAUUACGAUUU | -1.98 ± 0.19 | 0.0419 ± 0.25 |
| GUGUAGCAAUAUUACGCAGG |  | -2.3 ± 0.32 |
| GUGUAGCAAUAUUACGCCAU | -3.15 ± 0.29 | -1.51 ± 0.22 |
| GUGUAGCAAUAUUACGCCUG | -3.94 ± 0.25 | -0.863 ± 0.13 |
| GUGUAGCAAUAUUACGCCUU | -2.63 ± 0.39 | -2.56 ± 0.37 |
| GUGUAGCAAUAUUACGCGAU | -3.21 ± 0.26 | -1.96 ± 0.26 |
| GUGUAGCAAUAUUACGCGCU |  | -1.27 ± 0.18 |
| GUGUAGCAAUAUUACGCGGU | -2.85 ± 0.34 | -0.66 ± 0.41 |
| GUGUAGCAAUAUUACGCUCA | -0.291 ± 0.21 | 0.47 ± 0.33 |
| GUGUAGCAAUAUUACGCUGU | -2.96 ± 0.2 | -3.45 ± 0.39 |
| GUGUAGCAAUAUUACGCUUA | -1.45 ± 0.29 | 0.408 ± 0.25 |
| GUGUAGCAAUAUUACGGGAG | -3.55 ± 0.2 | -2.88 ± 0.18 |
| GUGUAGCAAUAUUACGGGGA | -1.9 ± 0.28 | -2.41 ± 0.25 |
| GUGUAGCAAUAUUACGGGUG | -2.72 ± 0.14 | -1.13 ± 0.13 |
| GUGUAGCAAUAUUACGGUAC | -2.1 ± 0.22 | -1.43 ± 0.25 |

| Sequence | self-splicing fitness (ln) (30 °C) | self-splicing fitness (ln) (37 °C) |
| --- | --- | --- |
| GUGUAGCAAUAUUACGGUUC | -1.04 ± 0.13 | -0.373 ± 0.16 |
| GUGUAGCAAUAUUACGUAUG | -3.21 ± 0.23 | -2.78 ± 0.27 |
| GUGUAGCAAUAUUACGUCGC | -2.48 ± 0.26 |  |
| GUGUAGCAAUAUUACGUCUU | 0.202 ± 0.18 | -0.00398 ± 0.18 |
| GUGUAGCAAUAUUACGUUUA | -2.51 ± 0.23 | -2.01 ± 0.15 |
| GUUAAGCAAUAUUACGAAAA | -1.13 ± 0.27 | -2.1 ± 0.24 |
| GUUAAGCAAUAUUACGAGGU |  | -2.51 ± 0.34 |
| GUUAAGCAAUAUUACGAGUG | -2.69 ± 0.14 | -1.84 ± 0.16 |
| GUUAAGCAAUAUUACGAUGG |  | -1.77 ± 0.23 |
| GUUAAGCAAUAUUACGCAGU | -1.74 ± 0.24 | -2.55 ± 0.23 |
| GUUAAGCAAUAUUACGCCAG | -3.1 ± 0.23 | -2.75 ± 0.28 |
| GUUAAGCAAUAUUACGCCUA | -0.752 ± 0.11 | -0.139 ± 0.11 |
| GUUAAGCAAUAUUACGCGGU | -3.3 ± 0.22 | -2.65 ± 0.2 |
| GUUAAGCAAUAUUACGCGUG | -0.781 ± 0.1 | -0.78 ± 0.099 |
| GUUAAGCAAUAUUACGCUAA | -2.35 ± 0.14 | -1.54 ± 0.15 |
| GUUAAGCAAUAUUACGGCAA | 0.045 ± 0.2 | -0.394 ± 0.22 |
| GUUAAGCAAUAUUACGGCUC | 0.46 ± 0.2 | -0.6 ± 0.21 |
| GUUAAGCAAUAUUACGGGAG | -3.17 ± 0.14 | -1.63 ± 0.097 |
| GUUAAGCAAUAUUACGGUUU | -0.85 ± 0.094 | -1.5 ± 0.12 |
| GUUAAGCAAUAUUACGUAGC | -2.84 ± 0.19 | -1.86 ± 0.26 |
| GUUAAGCAAUAUUACGUAGU | -2.06 ± 0.16 | -0.895 ± 0.14 |
| GUUAAGCAAUAUUACGUCAU | -1.5 ± 0.1 | -0.179 ± 0.12 |
| GUUAAGCAAUAUUACGUGUA | -2.09 ± 0.098 | -0.751 ± 0.091 |
| GUUAAGCAAUAUUACGUUAG | -2.47 ± 0.13 | -1.32 ± 0.14 |
| GUUCAGCAAUAUUACGAAAC | -1.48 ± 0.23 | -0.734 ± 0.22 |

| Sequence | self-splicing fitness (ln) (30 °C) | self-splicing fitness (ln) (37 °C) |
| --- | --- | --- |
| GUUCAGCAAUAUUACGAAGA | -0.456 ± 0.086 | 0.147 ± 0.1 |
| GUUCAGCAAUAUUACGAAGG | -1.55 ± 0.2 | -0.421 ± 0.23 |
| GUUCAGCAAUAUUACGAGCG | -2.03 ± 0.13 | -1.31 ± 0.15 |
| GUUCAGCAAUAUUACGAGCU | -3.34 ± 0.32 | -3.72 ± 0.39 |
| GUUCAGCAAUAUUACGAGGA | -3.54 ± 0.27 | -2.18 ± 0.26 |
| GUUCAGCAAUAUUACGAUCC | -1.37 ± 0.12 | -1.05 ± 0.14 |
| GUUCAGCAAUAUUACGCAAG | -0.984 ± 0.093 | -0.654 ± 0.12 |
| GUUCAGCAAUAUUACGCAUU | -0.22 ± 0.06 | 0.414 ± 0.078 |
| GUUCAGCAAUAUUACGCGGC |  | -2.94 ± 0.43 |
| GUUCAGCAAUAUUACGGACC |  | -2.8 ± 0.38 |
| GUUCAGCAAUAUUACGGUCG | -0.812 ± 0.099 | -0.788 ± 0.15 |
| GUUCAGCAAUAUUACGUAUC | -0.532 ± 0.089 | -0.756 ± 0.1 |
| GUUCAGCAAUAUUACGUCCG | 0.0188 ± 0.43 |  |
| GUUCAGCAAUAUUACGUCGA | -0.842 ± 0.15 | -0.398 ± 0.13 |
| GUUCAGCAAUAUUACGUGAU | -0.367 ± 0.049 | 0.43 ± 0.068 |
| GUUCAGCAAUAUUACGUGGC | -2.08 ± 0.1 | -2.25 ± 0.16 |
| GUUCAGCAAUAUUACGUGUU | -1.84 ± 0.08 | 0.0147 ± 0.089 |
| GUUGAGCAAUAUUACGAACU |  | -1.61 ± 0.27 |
| GUUGAGCAAUAUUACGACCC |  | -0.607 ± 0.49 |
| GUUGAGCAAUAUUACGACGG | -3.52 ± 0.3 | -1.12 ± 0.28 |
| GUUGAGCAAUAUUACGAGUC | -3.09 ± 0.28 | -0.0995 ± 0.16 |
| GUUGAGCAAUAUUACGAGUG | -2.98 ± 0.19 | -3.28 ± 0.28 |
| GUUGAGCAAUAUUACGAUUC | -0.993 ± 0.12 | 0.00124 ± 0.2 |
| GUUGAGCAAUAUUACGCCCU | -1 ± 0.19 | 0.108 ± 0.25 |
| GUUGAGCAAUAUUACGCCUU | -2.32 ± 0.28 | -1.78 ± 0.36 |

| Sequence | self-splicing fitness (ln) (30 °C) | self-splicing fitness (ln) (37 °C) |
| --- | --- | --- |
| GUUGAGCAAUAUUACGGACU | -3.15 ± 0.24 | -3.49 ± 0.34 |
| GUUGAGCAAUAUUACGGCAC | -0.787 ± 0.17 | -0.486 ± 0.2 |
| GUUGAGCAAUAUUACGGGCU | -2.65 ± 0.26 | -2.23 ± 0.49 |
| GUUGAGCAAUAUUACGGGGG | -3.87 ± 0.31 | -2.34 ± 0.25 |
| GUUGAGCAAUAUUACGGUAU | -4.2 ± 0.23 | -1.71 ± 0.13 |
| GUUGAGCAAUAUUACGUAAA | -2.7 ± 0.2 | -1.73 ± 0.19 |
| GUUGAGCAAUAUUACGUAUG | -2.76 ± 0.34 | -1.52 ± 0.29 |
| GUUGAGCAAUAUUACGUUGC | -2.03 ± 0.42 |  |
| GUUUAGCAAUAUUACGAAGG | -2.93 ± 0.38 | -1.37 ± 0.26 |
| GUUUAGCAAUAUUACGAAUG | -1.2 ± 0.18 | -0.733 ± 0.18 |
| GUUUAGCAAUAUUACGACAA | -2.09 ± 0.21 | -0.807 ± 0.19 |
| GUUUAGCAAUAUUACGACGC | 0.0175 ± 0.18 | -0.0772 ± 0.24 |
| GUUUAGCAAUAUUACGACGG | -2.88 ± 0.25 | -3.5 ± 0.47 |
| GUUUAGCAAUAUUACGAUCG | -1.61 ± 0.13 | -0.512 ± 0.19 |
| GUUUAGCAAUAUUACGAUGA | -2.41 ± 0.21 | -1.39 ± 0.14 |
| GUUUAGCAAUAUUACGCACG | -2.48 ± 0.44 |  |
| GUUUAGCAAUAUUACGCACU | -1.41 ± 0.15 | -0.128 ± 0.15 |
| GUUUAGCAAUAUUACGCCUA | -0.696 ± 0.28 | -0.827 ± 0.4 |
| GUUUAGCAAUAUUACGCGGA | -1.9 ± 0.24 | -1.82 ± 0.37 |
| GUUUAGCAAUAUUACGGCAC | -0.0568 ± 0.4 | -0.227 ± 0.43 |
| GUUUAGCAAUAUUACGGGAG | -1.44 ± 0.18 | -1.83 ± 0.2 |
| GUUUAGCAAUAUUACGGGCG | -0.544 ± 0.2 | -1.38 ± 0.21 |
| GUUUAGCAAUAUUACGGUGG |  | -2.33 ± 0.31 |
| GUUUAGCAAUAUUACGGUUC | -1.09 ± 0.12 | -0.823 ± 0.15 |
| GUUUAGCAAUAUUACGUAAC | -2.2 ± 0.29 | -1.96 ± 0.39 |
